As usually defined, the Kd is a measure of binding affinity in units of concentration.

The values below come from patent US20200234789A1, “DESIGNED PROTEINS FOR LIGAND BINDING” (THE REGENTS OF THE UNIVERSITY OF CALIFORNIA, priority 2017, published 2020).

Series [1] in a line: Hydrogen-deuterium exchange measurements by 2D 15N HSQC NMR. The series is classed as physicochemical. How it is done: FIGS. 5A-5F. Apo- and holo-PS1 share similar folded cores and differ in the binding region. FIG. 5A: 2D ^1H-^15N HSQC spectra acquired for apo- and holo-PS1. Experimental conditions: 0.78 mM at 298K, 50 mM NaPi, 100 mM NaCl, pH 7.5, in 5% D2O. Resonance assignments are indicated using the one-letter amino acid code. Signals arising from side chains (Asn HD2/ND2, Gln HE2/NE2, Arg HE/NE and Trp HE1/NE1) are also labeled. The residues belonging to the binding region and folded core are color-coded as in (FIG. 5B). Non-helical residues are labeled in cyan font face. […] A dashed box surrounds 90% of the backbone resonances of apo-PS1 and is also placed at the same position in the holo-PS1 spectrum. Arrows point to resonances of residues within the binding region that change dramatically upon binding of the cofactor. FIG. 5B: Solution NMR structures of apo-PS1 and holo-PS1. […] FIG. 5C: Hydrogen-deuterium exchange protection factors (PF) measured for apo- and holo-PS1, mapped onto the centroid structure of holo-PS1. Backbone amide nitrogens of residues with determined PFs are shown as spheres. […]
For the measurements of H/D exchange rates, a series of 2D ^15N HSQC spectra were obtained on a 900 MHz Bruker Avance II spectrometer. The first spectra were recorded 9 minutes after the dilution of 100 μl of a high concentration sample in H2O (2 mM for apo and 1.2 mM for holo) into 200 μl D2O buffer. […]

A short description of series [2]: Porphyrin binding titration to determine KD (apo-PS1 titrated into (CF3)4PZn, absorbance at 423 nm). The following applies: water-insoluble porphyrin solubilized with 1% w/v octylglucopyranoside detergent; 100 mM NaCl, 50 mM NaPi, pH 7.5; read-out: dissociation constant of binding, KD. How it is done:
FIGS. 3A-3D. Biophysical characterization of apo- and holo-PS1. FIG. 3A: Electronic absorption and emission spectra of (CF3)4PZn/PS1 holo-protein and (CF3)4PZn in toluene solvent. […] FIG. 3B: Determination of KD by apo-PS1 titration into a buffer solution (100 mM NaCl, 50 mM NaPi, pH 7.5) of (CF3)4PZn with 1% w/v octyl-b-D-glucopyranoside. […] FIG. 3C: Circular dichroism (CD) spectra of apo- and holo-PS1 in 50 mM NaPi, 100 mM NaCl, pH 7.5 as a function of temperature. The transitions appear reversible based on the fact that the spectra are identical after cooling to room temperature. Units are in molar residue ellipticity. […] FIG. 3D: Pump-probe transient absorption spectra of (CF3)4PZn bound in the interior of holo-PS1 at 21° C. and 100° C. […] Inset exemplifies identical transient dynamics (primarily intersystem crossing from S1 to T1) at ΔAbs.=482 nm (scaled). […]
2 μM of (CF3)4PZn was solubilized in a 1 mL solution of 50 mM NaPi, 100 mM NaCl, pH 7.5 buffer by inclusion of 1% w/v octyl-b-D-glucopyranoside. 2 μL of a 102 uM stock of apo-PS1 (0.2 μM aliquots) was titrated into the 1 mL solution containing the porphyrin, and an electronic absorption spectrum was measured until >2.5 equivalents of protein were added. Absorbance changes at 423 nm, due to His-Zn coordination-induced spectral shifts of the porphyrin, were fit to a single-site, protein-ligand binding model.

Series [3] can be described thus: Porphyrin binding to apo-protein, electronic absorption spectra ((CF3)4PFe loading). As to the method: FIG. 9. Scaled absorption spectra of (CF3)4PM/PS1 complexes, M=Zn^2+, Fe^2+. Loading of (CF3)4PFe into PS1 was ˜40-50%, likely due to the extreme insolubility of the porphyrin. The featured bands at 550-650 nm indicate that (CF3)4PFe is in a homogenous environment in the ferrous state. […] The peak at 423 nm is also indicative of a homogenous binding environment. The absorption spectra were scaled to reflect the relative extinction coefficients of the porphyrins. Buffer=50 mM NaPi, 100 mM NaCl, pH 7.5.
A 2-fold excess of the cofactor (CF3)4PZn was added from a 4 mM DMSO stock solution to a 50 mM NaPi, 100 mM NaCl, pH 7.5 buffer with apo-protein (Note that final DMSO concentrations were kept <1%.). Buffer solution of apo-PS1 protein was heated for 5 minutes at 50° C., (CF3)4PZn was then added from the DMSO stock solution, the resultant mixture was vortexed for 5 seconds, and placed back in the heat block at 50° C. for 15 minutes, with vortexing every 3 minutes. The protein/cofactor solution was then spun at 14000×g in a Amicon Ultra-0.5 mL centrifuge filter for 10 min, three times, replacing the buffer to 0.5 mL after each 10 min spin. Finally, the protein solution was spun for 4 min at 12000×g in an Amicon ultrafree-MC GV filter (UFC30GV0S). The holo-PS1 sample was then used for spectroscopic experiments immediately afterward, and diluted to an appropriate concentration if necessary. […]

B1: PS1: de novo designed porphyrin-binding four-helix bundle protein; designed sequence SEQ ID NO:1, expressed His-tag-cleaved sequence SEQ ID NO:2 (protein)
chain: SEFEKLRQTGDELVQAFQRLREIFDKGDDDSLEQVLEEIEELIQKHRQLFDNRQEAADTEAAKQGDQWVQLFQRFREAIDKGDKDSLEQLLEELEQALQKIRELAEKKN
On to B1, for which the “protection of the backbone surrounding the apolar core from solvent H/D exchange” value in series [1] is on record as “highly protected from exchange”. The dissociation constant (Kd) in series [2] came out at 45 nM. Besides, the “binding of (CF3)4PFe (ferrous iron-derivative of the porphyrin)” value in series [3] is on record as “binds”. Moreover, in series [3] (50 mM NaPi, 100 mM NaCl, pH 7.5), the “loading of (CF3)4PFe” value is 40-50%.
